The test has as its target PRC2^amKR: PRC2 with EZH2 K510R, K514R, K515R (am-loop lysines mutated to arginines) (human) (UniProt Q15910).

In turn, “PRC2^CXC: PRC2 with EZH2 K568A/Q570A/K574A/Q575A in the CXC domain, automethylated (from UniProt Q15910-2 1-751; Q15022 80-685; O75530 1-441; Q09028 1-425; Q6ZN18 1-517) (complex)” yielded an H3K27me3 generated by PRC2^amKR on mononucleosomes (HMTase assay, western blot) with 400 nM PRC2^CXC added of 50%.
